Measurements reported in patent publication US12702701B2, “Compositions and methods for treating granulomatosis with polyangiitis” (Canem Holdings, LLC, priority 2015, dated 2026).

Legend:
[1] = target: T1, proteinase-3 (Homo sapiens, UniProt P24158); conditions: cited from earlier work
T1 sequence (P24158 28-248): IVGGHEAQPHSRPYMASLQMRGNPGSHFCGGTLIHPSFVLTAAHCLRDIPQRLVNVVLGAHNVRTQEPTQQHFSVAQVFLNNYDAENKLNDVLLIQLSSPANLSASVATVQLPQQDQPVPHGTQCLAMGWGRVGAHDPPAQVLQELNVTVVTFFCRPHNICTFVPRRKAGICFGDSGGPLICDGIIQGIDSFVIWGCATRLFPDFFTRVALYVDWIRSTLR

[2] = target: T1, proteinase-3; conditions: Nobar et al, FEBS 272 (2005); cited from earlier work
[3] = tested on: HUVEC (human umbilical vein endothelial cells); assay: HUVEC cytotoxicity assay: calcein release after attack by TNF-primed, α-PR3 mAb-activated neutrophils; type: cell-based; conditions: for % Release / Mean (fluorescence): 0.25 mg/mL, α-PR3 mAbs +, 4 hours at 37° C.; for response in fluorescence release: all doses tested
Source text: A cell culture provides a model of the blood vessels by using HUVEC (human umbilical vein endothelial cells) cultured to 80-90% confluence as a representation of the blood vessel wall. The following is a model of GPA in cell culture using HUVEC and human blood neutrophils that are primed and activated by c-ANCA in the same manner as the disease. HUVEC are sensitized to inflammatory damage by pre-exposure to BCNU and ionomycin. In the disease state of Granulomatosis with Polyangiitis (GPAANegener's), activated neutrophils attack the blood vessel walls. This study evaluated two compounds, A1PI (α-1-antitrypsin; Sigma Aldrich Cat. No. A9024, lot SLBL9794V, 90% purity) and elafin (AnaSpec Cat. No. AS-61641, lot 1360190, 95% purity), and their ability to mitigate the induced damage to HUVEC as a model of the vascular endothelium compared to the negative control al-antichymotrypsin (Athens Research & Technology, Cat. No. 16-16-012400, lot AX2014-02, >95% purity). al-Antichymotrypsin was chosen as a negative control due to its structural similarity to A1PI and lack of activity against the PR3 receptor. α-1-Antichymotrypsin inhibits neutrophil cathepsin G and mast cell chymase.
Confluent HUVEC was labeled with calcein-AM as a fluorescent marker. Calcein-AM is a cell-permeant dye that can be used to determine cell viability in HUVEC (and most eukaryotic cells). In live cells the non-fluorescent calcein AM is converted to a green-fluorescent calcein upon uptake after acetoxymethyl ester hydrolysis by intracellular esterases. Calcein-AM dye requires very small quantities of cells while maintaining the same sensitivity as the traditional ^51Cr assay. Once taken up by the cell, free calcein is generally membrane impermeable and only permeates through gap junctions. Although there is some leakage over the incubation period, this is accounted for through the use of a control of HUVEC alone, labelled with Calcein-AM and used to determine the baseline fluorescence level accounting for normal cellular processes.
Peripheral blood neutrophils were primed to enhance expression of the PR-3 receptor (proteinase 3) with 50 U/mL TNF. A high proportion of membrane PR3 positive neutrophils is a risk factor for the development of vasculitis, and elevated membrane PR3 levels are associated with a higher relapse rate in patients with Wegener granulomatosis. Activated neutrophils were then added (5×10^5 neutrophils/well) to plated calcein labeled HUVEC to produce an inflammatory response. Four dose concentrations of A1PI (0.25, 0.5, 1.0 and 2.0 mg/mL) and one dose of elafin (0.25 mg/mL) were evaluated for prevention of the activation of neutrophils and lysis of the cells. One dose concentration of the negative control al antichymotrypsin (0.25 mg/mL) was evaluated.
Three a-PR-3 MoAbs [monoclonal antibodies (15 μg/mL of α-PR3 WGM2 and 5 μg/ml each of a-PR3 4A5 and α-PR 6A6, for a total of 25 μg/mL)] were added to activate the neutrophils to attack the HUVEC, causing lysis of the HUVEC. α-PR3 4A5 and α-PR3 6A6 clones were obtained from Eurodiagnostica and the α-PR3 WGM2 from Abcam. These 3 clones were selected to provide a model of the polyclonal response that would be seen in vivo and represent three binding sites on the PR-3 receptor (Van Der Geld, Characterization of monoclonal antibodies to PR3 as candidate tools for epitope mapping or human anti-PR3 autoantibodies, 1999). After addition of the activated neutrophils, test compounds and α-PR3 mAbs, cells were incubated for 4 hours at 37° C. Following incubation the supernatant was evaluated for fluorescence. When neutrophils attack the HUVEC and cell lysis occurs, the fluorescent calcein label is released from damaged membranes and measured in the supernatants.
A1PI provided a response that was dose dependent and directional in nature. The mean fluorescence was determined from […] aliquots of supernatant from each well, with 6 wells for each condition (18 replicates total). […]

Molecule	K of Proteinase-3/Trappin-2 associations [1] [nm]	Ki values [2]	% Release [3] [%]	Mean (fluorescence) [3]	response in fluorescence release [3]	equilibrium dissociation constant (Ki) for proteinase-3/elafin association [1] [nM]
Trappin-2: precursor of elafin, 117 amino acids, SEQ ID NO: 9	12	sub-nanomolar range	–	–	–	–
Elafin: mature product of Trappin-2, C-terminal 57 amino acids (61-117 of SEQ ID NO: 9); AnaSpec Cat. No. AS-61641 (AQEPVKGPVSTKPGSCPIILIRCAMLNPPNRCLKDTDCPGIKKCCEGSCGMACFVPQ; listed as Homo sapiens)	–	sub-nanomolar range	6.2	5455.7	showed a functional response	20
Negative K: negative control α1-antichymotrypsin (Athens Research & Technology), structurally similar to A1PI, lacks activity against the PR3 receptor (protein) HPNSPLDEENLTQENQDRGTHVDLGLASANVDFAFSLYKQLVLKAPDKNVIFSPLSISTALAFLSLGAHNTTLTEILKGLKFNLTETSEAEIHQSFQHLLRTLNQSSDELQLSMGNAMFVKEQLSLLDRFTEDAKRLYGSEAFATDFQDSAAAKKLINDYVKNGTRGKITDLIKDLDSQTMMVLVNYIFFKAKWEMPFDPQDTHQSRFYLSKKKWVMVPMMSLHHLTIPYFRDEELSCTVVELKYTGNASALFILPDQDKMEEVEAMLLPETLKRWRDSLEFREIGELYLPKFSISRDYNLNDILLQLGIEEAFTSKADLSGITGARNLAVSQVVHKAVLDVFEEGTEASAATAVKITLLSALVETRTIVRFNRPFLMIIVPTDTQNIFFMSKVTNPKQA	–	–	21.9	4417.7	failing to provide a meaningful change	–
